# Experimental data taken from US20110052551A1, “CARDIAC MYOCYTE MORPHOGENIC COMPOSITIONS AND METHODS OF USE THEREFOR” (priority 2008, published 2011).
# System: unfractionated BMMNCs
# Assay: qRT-PCR of pluripotency markers Oct-4 and Nanog in cultured BMMNCs
# Assay type: cell-based, mice
# Details: BMMNCs cultured 21 days, 150 ng/ml; normalized to 18S rRNA
# Description: Isolation and culture of unfractionated BM-derived mononuclear cells (BMMNCs). For each experiment, two mice were euthanized by CO2 inhalation followed by cervical dislocation and their femurs and tibias were removed and placed in Dulbecco's Modified Eagle Medium/F12 (DMEM/F12; Invitrogen Corp.). The bones were stripped of soft tissue with fine forceps exposing the long bone shafts. The BM was flushed into and suspended in fresh DMEM/F12 using a 23-gauge needle and 5-ml syringe. The BM was further dispersed by repeated passage through the 23-gauge needle for 10 minutes.
# After filtering cells through a 70 μm nylon mesh filter, the MNC fraction (BMMNCs) were separated using FICOLL-PAQUE™ (Sigma Aldrich, St. Louis, Mo., United States of America) density-gradient centrifugation as described in (Zuba-Surma et al., 2006). See also FIG. 9A. The viability of unfractionated BMMNCs was assessed by Trypan blue (Sigma Aldrich) staining. Approximately 15×10^6 unfractionated BMMNCs were obtained from each mouse. Adult unfractionated BMMNCs were seeded (n=5×10^5 cells/well) in 6-well tissue culture plates (lower chamber of a 6-well tissue culture TRANSWELL® system; Corning Inc. Life Sciences, Lowell, Mass., United States of America) on fibronectin (FN)-coated glass coverslips (Fischer Scientific). […]
# Assessment of mRNA expression by quantitative real-time RT-PCR (qRT-PCR). […]
molecule,measurement,value
"Wnt3a: recombinant Wnt3a protein, canonical Wnt, used at 150 ng/ml (protein, UniProt P56704 19-352, looked up) Protein Wnt-3a: SYPIWWSLAVGPQYSSLGSQPILCASIPGLVPKQLRFCRNYVEIMPSVAEGIKIGIQECQHQFRGRRWNCTTVHDSLAIFGPVLDKATRESAFVHAIASAGVAFAVTRSCAEGTAAICGCSSRHQGSPGKGWKWGGCSEDIEFGGMVSREFADARENRPDARSAMNRHNNEAGRQAIASHMHLKCKCHGLSGSCEVKTCWWSQPDFRAIGDFLKDKYDSASEMVVEKHRESRGWVETLRPRYTYFKVPTERDLVYYEASPNFCEPNPETGSFGTRDRTCNVSSHGIDGCDLLCCGRGHNARAERRREKCRCVFHWCCYVSCQECTRVYDVHTCK",increase in Nanog mRNA expression compared with baseline,158±0.6 fold
same,increase in Oct-4 mRNA expression compared with baseline,177±0.4 fold
